We go through 3 substances from article PMC9204493.

Holding throughout (assay): SEC-MALS; Superose 6 Increase 10/300, 1x PBS pH 7.4, 0.4 mL/min, non-denaturing; self-assembly of the fusion protein into the nanoparticle
A general note: SEC sorts molecules by how far they enter the pores of the column.

In experiment [1] the target is Encapsulin-pH1HA10 (Myxococcus xanthus) (UniProt Q1D6H4).
Experiment [2] has as its target MsDps2-pH1HA10 (Mycobacterium smegmatis).
Experiment [3] addresses pH1HA10-Ferritin (Helicobacter pylori) (UniProt Q9ZLI1).

Take “Encapsulin-pH1HA10 (from UniProt Q1D6H4 1-287)”: in experiment [1], the stoichiometry N – broadly, a count of units in the complex or per binding partner – was found to be 180.
MsDps2-pH1HA10 gave a stoichiometry N in experiment [2] of 12.
Consider “pH1HA10-Ferritin (from UniProt Q9ZLI1 1-163)”, for which the stoichiometry N in experiment [3] was 24.
